Source: patent publication US20180353567A1 (THOMAS JEFFERSON UNIVERSITY, published 2018)

How the values were obtained:
[1] = molecular target: β2AR-Renilla Reniformus luciferase II fusion (UniProt P07550 1-413); assay: cell-based or functional assay
FLAG-β2AR = FLAG-β2AR (UniProt P07550 1-413, limits assumed); assay: cell-based or functional assay

| EC50 of β-arrestin2 recruitment to the β2AR (BRET) [1] | cAMP production in HEK293 cells stably overexpressing FLAG-β2AR (FLAG-β2AR) | Binder |
| --- | --- | --- |
| 1900 nM |  | VITAIAKFERLQTVTN (HELM PEPTIDE1{[CCCCCCCCCCCCCCCC(=O)[*:2]].V.I.T.A.I.A.K.F.E.R.L.Q.T.V.T.N.[am]}$$$$V2.0; SMILES CCCCCCCCCCCCCCCC(=O)N[C@H](C(=O)N[C@H](C(=O)N[C@H](C(=O)N[C@@H](C)C(=O)N[C@H](C(=O)N[C@@H](C)C(=O)N[C@@H](CCCCN)C(=O)N[C@@H](Cc1ccccc1)C(=O)N[C@@H](CCC(=O)O)C(=O)N[C@@H](CCCNC(=N)N)C(=O)N[C@@H](CC(C)C)C(=O)N[C@@H](CCC(N)=O)C(=O)N[C@H](C(=O)N[C@H](C(=O)N[C@H](C(=O)N[C@@H](CC(N)=O)C(N)=O)[C@@H](C)O)C(C)C)[C@@H](C)O)[C@@H](C)CC)[C@@H](C)O)[C@@H](C)CC)C(C)C) [ICL1-4] |
| 1100 nM |  | LVITAIAKFERLQTVT (HELM PEPTIDE1{[CCCCCCCCCCCCCCCC(=O)[*:2]].L.V.I.T.A.I.A.K.F.E.R.L.Q.T.V.T.[am]}$$$$V2.0; SMILES CCCCCCCCCCCCCCCC(=O)N[C@@H](CC(C)C)C(=O)N[C@H](C(=O)N[C@H](C(=O)N[C@H](C(=O)N[C@@H](C)C(=O)N[C@H](C(=O)N[C@@H](C)C(=O)N[C@@H](CCCCN)C(=O)N[C@@H](Cc1ccccc1)C(=O)N[C@@H](CCC(=O)O)C(=O)N[C@@H](CCCNC(=N)N)C(=O)N[C@@H](CC(C)C)C(=O)N[C@@H](CCC(N)=O)C(=O)N[C@H](C(=O)N[C@H](C(=O)N[C@H](C(N)=O)[C@@H](C)O)C(C)C)[C@@H](C)O)[C@@H](C)CC)[C@@H](C)O)[C@@H](C)CC)C(C)C) [ICL1-20] |
| 1700 nM | ~2 fold increase over vehicle | TAIAKFERLQTVTNYF (HELM PEPTIDE1{[CCCCCCCCCCCCCCCC(=O)[*:2]].T.A.I.A.K.F.E.R.L.Q.T.V.T.N.Y.F.[am]}$$$$V2.0; SMILES CCCCCCCCCCCCCCCC(=O)N[C@H](C(=O)N[C@@H](C)C(=O)N[C@H](C(=O)N[C@@H](C)C(=O)N[C@@H](CCCCN)C(=O)N[C@@H](Cc1ccccc1)C(=O)N[C@@H](CCC(=O)O)C(=O)N[C@@H](CCCNC(=N)N)C(=O)N[C@@H](CC(C)C)C(=O)N[C@@H](CCC(N)=O)C(=O)N[C@H](C(=O)N[C@H](C(=O)N[C@H](C(=O)N[C@@H](CC(N)=O)C(=O)N[C@@H](Cc1ccc(O)cc1)C(=O)N[C@@H](Cc1ccccc1)C(N)=O)[C@@H](C)O)C(C)C)[C@@H](C)O)[C@@H](C)CC)[C@@H](C)O) [ICL1-11] |
